Residue numbers refer to the chain shown, from its start.
Tests used:
[1] = target: T1, RNase H1 D10N (RH1 D10N) (Escherichia coli, UniProt P0A7Y4 1-155, D10N); test: MST; 10 mM Mg2+; saturation not reached, low limit estimate; MST: 40 mM Tris-HCl pH 7.9, 40 mM KCl, 10 mM MgCl2, 25 C; R-loop 0.5 uM, RH1 D10N 0.05-30 uM (RNAP MST conditions not stated separately); details: protein: recombinant, tags: N-terminal 6xHis, label: 5'-FAM on RNA, three strands 1:1:1, bubble
T1 sequence: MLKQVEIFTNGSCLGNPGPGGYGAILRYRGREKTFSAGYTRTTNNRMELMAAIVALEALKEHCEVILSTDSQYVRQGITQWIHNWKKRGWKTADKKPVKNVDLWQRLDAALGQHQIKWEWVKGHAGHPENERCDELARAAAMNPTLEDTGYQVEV

[2] = target: T1, RNase H1 D10N (RH1 D10N); test: MST; 10 mM Mg2+; MST: 40 mM Tris-HCl pH 7.9, 40 mM KCl, 10 mM MgCl2, 25 C; R-loop 0.5 uM, RH1 D10N 0.05-30 uM (RNAP MST conditions not stated separately); details: protein: recombinant, tags: N-terminal 6xHis, label: 5'-FAM on RNA, bubble
[3] = target: RNA polymerase (RNAP) (Escherichia coli, UniProt P0A7Z4;P0A8V2;P0A8T7;P0A800 1-329;1-1342;1-1407;2-91); test: MST; MST: 40 mM Tris-HCl pH 7.9, 40 mM KCl, 10 mM MgCl2, 25 C; R-loop 0.5 uM, RH1 D10N 0.05-30 uM (RNAP MST conditions not stated separately); details: protein: recombinant; tags: N-terminal His (pVS10 plasmid); chain copies: 2;1;1;1; label: 5'-FAM on RNA; three strands 1:1:1 (nontemplate DNA, template DNA, RNA); bubble; 11 bp hybrid
[4] = three strands 1:1:1, 10-11 nt hybrid

RNA polymerase (RNAP), sequence (P0A7Z4 whole entry, chain 1 of 4): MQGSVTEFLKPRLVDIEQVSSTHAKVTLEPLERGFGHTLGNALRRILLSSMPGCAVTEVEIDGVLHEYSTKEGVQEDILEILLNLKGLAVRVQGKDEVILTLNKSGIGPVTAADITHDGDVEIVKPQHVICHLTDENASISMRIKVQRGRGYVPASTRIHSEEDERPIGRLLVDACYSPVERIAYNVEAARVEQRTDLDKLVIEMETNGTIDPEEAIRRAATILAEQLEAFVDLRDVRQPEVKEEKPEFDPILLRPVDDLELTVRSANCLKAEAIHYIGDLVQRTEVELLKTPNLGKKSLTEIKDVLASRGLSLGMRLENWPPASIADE
RNA polymerase (RNAP), sequence (P0A8V2 whole entry, chain 2 of 4): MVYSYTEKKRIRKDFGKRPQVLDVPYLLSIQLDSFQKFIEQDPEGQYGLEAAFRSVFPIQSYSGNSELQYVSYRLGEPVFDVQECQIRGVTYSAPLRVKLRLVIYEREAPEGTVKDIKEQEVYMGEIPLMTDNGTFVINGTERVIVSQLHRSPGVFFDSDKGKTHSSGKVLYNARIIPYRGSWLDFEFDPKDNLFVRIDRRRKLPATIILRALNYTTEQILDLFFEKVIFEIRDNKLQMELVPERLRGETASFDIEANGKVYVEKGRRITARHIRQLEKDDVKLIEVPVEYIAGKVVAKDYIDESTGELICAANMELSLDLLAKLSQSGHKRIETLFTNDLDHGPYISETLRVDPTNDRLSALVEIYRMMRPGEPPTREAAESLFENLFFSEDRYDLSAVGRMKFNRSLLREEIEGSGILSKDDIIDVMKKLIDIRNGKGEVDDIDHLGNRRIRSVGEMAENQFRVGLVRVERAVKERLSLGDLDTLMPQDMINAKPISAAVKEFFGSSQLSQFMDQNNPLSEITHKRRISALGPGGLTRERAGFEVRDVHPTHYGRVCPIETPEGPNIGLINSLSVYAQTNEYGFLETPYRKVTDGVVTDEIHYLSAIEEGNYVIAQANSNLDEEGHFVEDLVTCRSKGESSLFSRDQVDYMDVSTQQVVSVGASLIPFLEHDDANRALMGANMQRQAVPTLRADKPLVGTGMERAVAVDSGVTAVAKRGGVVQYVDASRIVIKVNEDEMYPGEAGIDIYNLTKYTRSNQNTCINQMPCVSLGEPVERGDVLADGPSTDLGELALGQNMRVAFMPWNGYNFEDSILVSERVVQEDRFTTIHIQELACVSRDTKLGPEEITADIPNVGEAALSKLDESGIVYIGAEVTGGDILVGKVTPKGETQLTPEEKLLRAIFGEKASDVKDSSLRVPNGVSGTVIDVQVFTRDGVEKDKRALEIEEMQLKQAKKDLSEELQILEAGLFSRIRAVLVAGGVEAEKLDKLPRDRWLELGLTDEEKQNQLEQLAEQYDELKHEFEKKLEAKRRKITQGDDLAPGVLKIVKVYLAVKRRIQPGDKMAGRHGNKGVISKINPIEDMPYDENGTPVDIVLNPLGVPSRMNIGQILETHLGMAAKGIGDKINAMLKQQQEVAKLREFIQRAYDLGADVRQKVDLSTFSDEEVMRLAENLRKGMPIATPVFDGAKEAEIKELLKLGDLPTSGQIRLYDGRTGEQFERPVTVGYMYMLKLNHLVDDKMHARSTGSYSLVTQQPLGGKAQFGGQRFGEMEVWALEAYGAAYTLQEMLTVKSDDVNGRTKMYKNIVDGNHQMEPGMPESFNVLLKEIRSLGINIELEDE
RNA polymerase (RNAP), sequence (P0A8T7 whole entry, chain 3 of 4): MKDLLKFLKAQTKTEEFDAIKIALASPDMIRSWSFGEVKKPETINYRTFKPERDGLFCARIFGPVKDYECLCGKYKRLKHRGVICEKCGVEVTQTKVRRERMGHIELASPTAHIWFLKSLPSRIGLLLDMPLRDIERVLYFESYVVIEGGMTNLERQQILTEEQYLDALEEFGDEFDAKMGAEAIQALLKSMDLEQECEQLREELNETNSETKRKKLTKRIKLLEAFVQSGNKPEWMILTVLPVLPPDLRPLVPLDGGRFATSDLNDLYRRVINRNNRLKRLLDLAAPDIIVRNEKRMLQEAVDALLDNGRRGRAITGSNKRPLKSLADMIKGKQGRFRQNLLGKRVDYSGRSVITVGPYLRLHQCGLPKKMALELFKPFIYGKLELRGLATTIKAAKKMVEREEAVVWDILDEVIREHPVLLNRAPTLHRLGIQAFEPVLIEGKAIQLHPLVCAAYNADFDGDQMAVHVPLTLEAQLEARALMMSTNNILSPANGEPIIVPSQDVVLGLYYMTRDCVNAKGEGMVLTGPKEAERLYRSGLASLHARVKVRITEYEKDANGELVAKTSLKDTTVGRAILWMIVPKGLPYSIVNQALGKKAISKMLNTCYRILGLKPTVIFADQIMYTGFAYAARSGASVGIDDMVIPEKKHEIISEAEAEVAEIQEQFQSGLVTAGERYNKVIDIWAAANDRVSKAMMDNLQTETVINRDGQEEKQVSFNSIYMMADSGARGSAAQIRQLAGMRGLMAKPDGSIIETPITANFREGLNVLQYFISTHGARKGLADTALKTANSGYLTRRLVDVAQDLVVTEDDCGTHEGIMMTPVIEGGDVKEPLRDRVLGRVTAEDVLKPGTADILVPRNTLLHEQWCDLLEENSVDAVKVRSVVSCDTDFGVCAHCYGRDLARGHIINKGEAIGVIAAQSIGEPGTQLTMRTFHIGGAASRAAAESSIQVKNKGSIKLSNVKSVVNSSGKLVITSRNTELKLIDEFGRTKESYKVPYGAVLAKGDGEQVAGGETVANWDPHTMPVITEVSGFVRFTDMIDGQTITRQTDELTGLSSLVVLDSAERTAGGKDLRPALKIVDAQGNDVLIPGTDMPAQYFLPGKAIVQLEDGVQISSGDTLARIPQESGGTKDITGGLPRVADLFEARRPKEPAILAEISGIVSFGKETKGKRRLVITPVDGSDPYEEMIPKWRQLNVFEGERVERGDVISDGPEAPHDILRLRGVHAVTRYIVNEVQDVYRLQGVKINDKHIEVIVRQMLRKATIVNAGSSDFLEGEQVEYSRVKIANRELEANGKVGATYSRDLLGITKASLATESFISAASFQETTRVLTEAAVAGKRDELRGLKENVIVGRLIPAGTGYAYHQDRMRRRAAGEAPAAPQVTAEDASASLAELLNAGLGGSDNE
RNA polymerase (RNAP), sequence (P0A800 2-91, chain 4 of 4): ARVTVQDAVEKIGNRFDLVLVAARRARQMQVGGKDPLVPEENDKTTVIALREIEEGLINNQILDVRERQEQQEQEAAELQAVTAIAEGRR

B1: R-loop 8 (mixed)
DNA 1: ACTTGTAGCGATCTAAGGTCTTTTTTTTTTTTTTTTTTTTTTTTTTTTTGGCTCATTGCAGTAGAGTAGC
DNA 2: GCTACTCTACTGCAATGAGTGCTTGATGGAGGGATGTGTAGTGGAATAGATACCTTAGATCGCTACAAGT
RNA: CUCACAUCUAUUCCACUACACAUCCCUCCAUCAAGCA
[1]; extended hybrid
  Kd: ~9.3 µM

B2: R-loop 9 (mixed)
DNA 1: ACTTGTAGCGATCTAAGGTCTTTTGGGTGGGTGGGTGGGTTTTTTTTTTGGCTCATTGCAGTAGAGTAGC
DNA 2: B1 DNA 2
RNA: B1 RNA
[1]; extended hybrid, G4 in nontemplate DNA (annealed in 140 mM KCl)
  Kd: ~5.1 µM

B3: R-loop 6 (mixed)
DNA 1: ACTTGTAGCGATCTAAGGTCTTTTTTTTTTTTTTGGCTCATTGCAGTAGAGTAGC
DNA 2: GCTACTCTACTGCAATGAGCTGCTCTCTGGACTCGAACCTTAGATCGCTACAAGT
RNA: CUCACAUCGAGUCCAGAGAGCA
[1]; 16 nt hybrid
  Kd: ~9.7 µM

B4: R-loop 7 (mixed)
DNA 1: ACTTGTAGCGATCTAAGGTCTTTTTTTTTTTTTTTTTTTGGCTCATTGCAGTAGAGTAGC
DNA 2: GCTACTCTACTGCAATGAGCTGGGATGTGTAGTGGAATAGAACCTTAGATCGCTACAAGT
RNA: CUCACAUCUAUUCCACUACACAUCCCA
[1]; extended hybrid
  Kd: ~6.7 µM

B5: R-loop 1 (mixed)
DNA 1: ACTTGTAGCGATCTAAGGTCTTTTTTTTTGGCTCATTGCAGTAGAGTAGC
DNA 2: GCTACTCTACTGCAATGAGCTGCTCTCTGGAACCTTAGATCGCTACAAGT
RNA: CUCACAUCCAGAGAGCA
[2]; three strands 1:1:1 (nontemplate DNA, template DNA, RNA), 11 bp hybrid
  Kd: 1.2 ± 0.4 µM
[3]
  Kd: 0.3 ± 0.1 µM

B6: R-loop 2 (mixed)
DNA 1: B5 DNA 1 with G30A
DNA 2: B5 DNA 2
RNA: CUCACAUCCAGAGAGCA
[2]; [4]
  Kd: 1.1 ± 0.4 µM

B7: R-loop 3 (mixed)
DNA 1: B5 DNA 1 with G31C
DNA 2: B5 DNA 2
RNA: CUCACAUCCAGAGAGCA
[2]; [4]
  Kd: 1.5 ± 0.4 µM
